According to publication PMC5303827 (Nature Communications, 2017):
Residue numbers refer to the chain shown, from its start.

T1: Ufd2p NLM (S. cerevisiae, UniProt P54860 1-961, E51A | K52A | L53A | D54A | K55A | E105A | N106A | M109A | N110A)
T1 construct: Ufd2p, S. cerevisiae, amino acids 1-961, two N-terminal loops mutated to alanine; prey of the GST-Rad23p pull-down and enzyme of the ubiquitination reactions; also called Ufd2 NLM
T1 sequence (looked up): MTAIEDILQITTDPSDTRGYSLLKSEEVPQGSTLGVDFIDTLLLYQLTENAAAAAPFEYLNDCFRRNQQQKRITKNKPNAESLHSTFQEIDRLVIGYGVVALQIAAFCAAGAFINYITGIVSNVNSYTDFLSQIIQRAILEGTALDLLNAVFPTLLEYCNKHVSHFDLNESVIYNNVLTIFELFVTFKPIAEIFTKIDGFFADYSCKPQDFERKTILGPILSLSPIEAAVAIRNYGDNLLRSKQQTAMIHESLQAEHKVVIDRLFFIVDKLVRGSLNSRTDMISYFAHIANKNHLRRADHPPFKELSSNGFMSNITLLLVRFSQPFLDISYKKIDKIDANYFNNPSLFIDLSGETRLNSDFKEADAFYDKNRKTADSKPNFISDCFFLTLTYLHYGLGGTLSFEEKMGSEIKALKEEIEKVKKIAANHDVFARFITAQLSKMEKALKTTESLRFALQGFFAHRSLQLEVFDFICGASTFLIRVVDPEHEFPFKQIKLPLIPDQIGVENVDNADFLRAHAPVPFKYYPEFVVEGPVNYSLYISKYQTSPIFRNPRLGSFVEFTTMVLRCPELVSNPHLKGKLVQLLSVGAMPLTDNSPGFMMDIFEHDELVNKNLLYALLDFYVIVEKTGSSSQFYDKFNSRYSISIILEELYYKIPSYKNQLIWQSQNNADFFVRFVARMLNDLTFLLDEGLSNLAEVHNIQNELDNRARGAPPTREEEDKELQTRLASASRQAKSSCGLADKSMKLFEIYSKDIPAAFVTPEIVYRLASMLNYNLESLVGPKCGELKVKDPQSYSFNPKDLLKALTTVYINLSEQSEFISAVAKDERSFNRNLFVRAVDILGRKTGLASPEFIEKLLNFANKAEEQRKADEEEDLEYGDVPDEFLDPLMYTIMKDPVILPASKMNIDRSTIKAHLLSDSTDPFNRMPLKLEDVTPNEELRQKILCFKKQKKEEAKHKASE

T2: Ufd2p (S. cerevisiae, UniProt P54860 1-961)
T2 construct: Ufd2p, S. cerevisiae, amino acids 1-961; also called wild-type Ufd2p; source: E. coli Rosetta (DE3), purified
T2 sequence (looked up): T1 sequence (looked up) with A51E, A52K, A53L, A54D, A55K, A105E, A106N, A109M, A110N

T3: wild-type Ufd2p (GST pull-down with Rad23p, Supplementary Fig. 14) (S. cerevisiae, UniProt P54860 1-961)
T3 construct: Ufd2p, S. cerevisiae; amino acids 1-961; May be the same as m2 if Ufd2p was the GST-tagged bait
T3 sequence (looked up): T1 sequence (looked up) with A51E, A52K, A53L, A54D, A55K, A105E, A106N, A109M, A110N

T4: Ufd2p NLM (GST pull-down with Rad23p, Supplementary Fig. 14) (S. cerevisiae, UniProt P54860 1-961, E51A | K52A | L53A | D54A | K55A | E105A | N106A | M109A | N110A)
T4 construct: Ufd2p, S. cerevisiae; 1-961 with residues of the two N-terminal loops mutated to alanine; May be the same as m12 if Ufd2p NLM was the GST-tagged bait
T4 sequence (looked up): T1 sequence (looked up)

B1: GST-Rad23p (natural protein, S. cerevisiae, UniProt P32628 1-398, looked up)
chain: MVSLTFKNFKKEKVPLDLEPSNTILETKTKLAQSISCEESQIKLIYSGKVLQDSKTVSECGLKDGDQVVFMVSQKKSTKTKVTEPPIAPESATTPGRENSTEASPSTDASAAPAATAPEGSQPQEEQTATTERTESASTPGFVVGTERNETIERIMEMGYQREEVERALRAAFNNPDRAVEYLLMGIPENLRQPEPQQQTAAAAEQPSTAATTAEQPAEDDLFAQAAQGGNASSGALGTTGGATDAAQGGPPGSIGLTVEDLLSLRQVVSGNPEALAPLLENISARYPQLREHIMANPEVFVSMLLEAVGDNMQDVMEGADDMVEGEDIEVTGEAAAAGLGQGEGEGSFQVDYTPEDDQAISRLCELGFERDLVIQVYFACDKNEEAAANILFSDHAD
notes: Rad23p, ubiquitin receptor for the proteasome, yeast; source: E. coli Rosetta (DE3), purified (Glutathione Sepharose 4B, size exclusion chromatography); not shown: GST, N-terminal, kept
B2: Rad23p (GST pull-down with Ufd2p, Supplementary Fig. 14) (natural protein, UniProt P32628 1-398, looked up)
chain: B1 chain
notes: Rad23p; May be the same as m19 if Rad23p was the GST-tagged bait

Legend:
Conditions in all cases: both partners purified
Ufd2p NLM = target: T1, Ufd2p NLM; experiment: pull-down; GST-Rad23p used to pull down Ufd2p, Ufd2p N mut-1 or Ufd2p NLM; blot with anti-Ufd2; GST as control
Ufd2p = target: T2, Ufd2p; experiment: as above
[1] = target: T3, wild-type Ufd2p (GST pull-down with …); experiment: pull-down; GST pull-down of Ufd2p or Ufd2p NLM with Rad23p (Supplementary Fig. 14); which partner carried GST is not told
[2] = target: T4, Ufd2p NLM (GST pull-down with Rad23p, …); experiment: as above

| Binder | binding result (Ufd2p NLM) | binding result (Ufd2p) | binding result [1] | binding result [2] |
| --- | --- | --- | --- | --- |
| B1 | binds | binds |  |  |
| B2 |  |  | binds | binds |
